Results on 1 molecule are retold here after patent US20130045267A1, “METHODS OF USING AGENTS THAT MODULATE CLAUDIN EXPRESSION” (priority 2010, published 2013).

Where “and” joins values, the source holds several entries; their conditions need not be identical. Equal entries are not always repeated.

One data set concerns occludin. The data set is described as follows: Western blot of occludin after CLDN1 siRNA in PHK. It counts as cell-based, human. The note with it: 48 h. On the procedure:
(§1) PHK were lysed on ice in RIPA lysis buffer (20 mM Tris, 50 mM NaCl, 2 mM EDTA, 2 mM EGTA, 1% sodium deoxycholate, 1% TX-100, and 2% SDS, pH 7.4), with 1:100 Protease Inhibitor Cocktail (Sigma), 1:100 Phosphatase Inhibitor Cocktail ([…] for 30 min at 4° C. The samples were heated at 95° C. for 10 min and then centrifuged at 14,000 rpm for 15 min. Forty μg of protein, determined by BCA (Pierce) in NuPage LDS Sample Buffer (Invitrogen) was applied to 4-12% NuPage Bis-Tris gels (Invitrogen). Electrophoresis was performed under reducing conditions with MES SDS Buffer (Invitrogen). Membranes were incubated in blotting solution (5% non-fat dry milk in PBS+0.05% Tween 20) at RT for 1 h and then incubated with primary antibodies; claudin-1 (JAY.8; Zymed), occludin (OC/3F10; Zymed) and GAPDH (FL-355; Santa Cruz). An HRP-linked secondary antibody (GE Healthcare) was used with ECL (GE Healthcare) to visualize bands by autoradiography with Kodak BioMax MR film. The pixel intensity of each band was estimated with Image J.
PHK were plated on glass coverslips at 2-3×10^5 cells/well in a 6-well plate or at 2-3×10^4 cells/filter in Transwell insert (Costar; PET membrane, 0.4 μm pore size, 6.5 mm insert) in Keratinocyte-SFM without antibiotics. […]
Background: Immunoblotting shows a protein as a band on a membrane.

The subject of a further data set is HSV-1 strain F. Put plainly: Infectious center assay. It counts as cell-based, Herpes Simplex Virus (HSV)-1. The note with it: 24 h post-infection, n=3. How it is done:
Twenty-four hours post-infection, PHK were treated with 0.05% Trypsin-EDTA (Invitrogen/Gibco) for 5 min at 37° C. followed by gently scraping to lift the cells, washed 3 times in DMEM containing 1% HI-FBS, and vortexed for 30 sec to disrupt cell clumps. Alive cells were counted using Trypan blue exclusion and scalar PHK dilutions (1000 to 1 cells in 1 ml of media) were plated onto pre-grown monolayers of Vero cells in six well plates. After 2 h, 1 ml of DMEM containing 5% HI-FBS and 0.4% human-γ-globulin (Sigma; final concentration 0.5 mg/ml) was added to each well. After 3 days incubation at 37° C., cells were fixed (75% MeOH/25% acetic acid) and stained with 0.1% crystal violet. Plaques were counted by 2 independent investigators and results expressed as percent of infected PHK.

For a further data set, the system named is claudin-1. The data set is described as follows: Western blot of claudin-1 protein in primary human keratinocytes. It counts as cell-based. The note with it: PHK. How it is done: Human keratinocytes were isolated from neonatal foreskin. Poumay et al., “Basal Detachment of the Epidermis Using Dispase: Tissue Spatial Organization and Fate of Integrin Alpha 6 Beta 4 and Hemidesmosomes,” J. Invest. Dermatol. 102:111-7 (1994), which is hereby incorporated by reference in its entirety. PHK were cultured in Keratinocyte-SFM (Invitrogen/Gibco) with 1% Pen/Strep, 0.2% Amphotericin B (Invitrogen/Gibco). To differentiate PHK, cells were grown in DMEM (Invitrogen/Gibco) with 10% heat-inactivated fetal bovine serum (Invitrogen/Gibco) and 1% Pen/Strep, 0.2% Amphotericin B (Invitrogen/Gibco). For TJ modulation experiments, the following cytokines were added alone or in combination to the differentiation media; human IL-4 (50 ng/ml; R&D system) and IL-13 (50 ng/ml; R&D system).
as §1
(§2) PHK were plated on glass coverslips at 2-3×10^5 cells/well in a 6-well plate or at 2-3×10^4 cells/filter in Transwell insert (Costar; PET membrane, 0.4 μm pore size, 6.5 mm insert) in Keratinocyte-SFM without antibiotics. The next day after plating, cells were transfected with claudin-1 specific or control (scrambled) siRNAs (Santa Cruz) using Lipofectamine™ 2000 transfection Reagent (Invitrogen). TEER and permeability experiments were conducted 48 hours after PHK were switched to differentiation media.

The subject of a further data set is nectin-1 (PVRL1). The data set is described as follows: qPCR of nectin-1 (PVRL1) after CLDN1 siRNA in PHK. The class given is cell-based, human. How it is done:
PHK were plated on glass coverslips at 2-3×10^5 cells/well in a E-well plate or at 2-3×10^4 cells/filter in Transwell inserts (Costar; PET membrane, 0.4 μm pore size, 6.5 mm insert) in Keratinocyte-SFM without antibiotics. The next day after plating, cells were transfected with claudin-1 specific or control (scrambled) siRNAs (Santa Cruz) using Lipofectamine™ 2000 transfection Reagent (Invitrogen).
Reverse transcription was performed from total RNA using iScript™ cDNA Synthesis kit (Bio-Rad) according to the manufacturer's protocol. qPCR was performed using the iQ™ SYBER Green Supermix assay system from Bio-Rad Laboratories. All PCR amplifications were carried out in triplicate on an iQ5 Multicolor real-time PCR detection system (Bio-Rad). Primers were designed and synthesized by Integrated DNA Technologies. […]
Relative gene expression was calculated by using the […], in which Ct indicates cycle threshold, the fractional cycle number where the fluorescent signal reaches detection threshold. Livak and Schmittgen, “Analysis of Relative Gene Expression Data Using Real-Time Quantitative PCR and the 2(−Delta Delta C(T)) Method,” Methods 25:402-8 (2001), which is hereby incorporated by reference in its entirety. The normalized Ct value of each sample was calculated using GAPDH as an endogenous control gene.

The subject of data set [1] is primary human keratinocytes (PHK). Put plainly: Click-iT EdU proliferation assay in PHK. The class given is cell-based. The note with it: n=3.
The test system of a further data set is connexin-26 (GJB2). Put plainly: qPCR of connexin-26 (GJB2) after claudin-1 knockdown in PHK. The class given is cell-based, human. The note with it: claudin-1 siRNA transfected PHK, n=6. On the procedure: QPCR was performed using the iScript™ cDNA Synthesis kit and iQ™ SYBER Green Supermix assay system (Bio-Rad Laboratories). All PCR amplifications were carried out in triplicate on an iQ5 Multicolor real-time PCR detection system (Bio-Rad). Primers were designed and synthesized by Integrated DNA Technologies (Table 1). Relative gene expression was calculated by using the 2^−ΔΔCt method. Livak and Schmittgen, “Analysis of Relative Gene Expression Data Using Real-Time Quantitative PCR and the 2(−Delta Delta C(T)) Method,” Methods 25:402-8 (2001), which is hereby incoporated by reference in its entirety. The normalized Ct value of each sample was calculated using GAPDH as an endogenous control gene.
as §2
A general note: Real-time PCR tracks product formation cycle by cycle.

B1: CLDN1 siRNA: claudin-1 specific siRNA (Santa Cruz), a pool of 3 separate strands, SEQ ID NO: 10-15 (nucleic acid)
chain 1: UACAUAGGCAUAGUUCAUGNN
chain 2: CAUGAACUAUGCCUAUGUANN
chain 3: AACGUAUGCAGUUAAUUCCNN
chain 4: GGAAUUAACUGCAUACGUUNN
chain 5: UGAAGAUCUAUGUAUGUGGNN
chain 6: CCACAUACAUAGAUCUUCANN
modifications: chemistry not given here
In the case of B1, in the data set with occludin, the “occludin protein by Western blot” value is “No change”. Moreover, the “PHK infected with HSV-1” value in the data set on HSV-1 strain F is 38±6% and 38±6.43%. Moreover, the “claudin-1 protein by Western blot” value in the data set on claudin-1 (CLDN1 siRNA, 48 h) is given as “dose-dependent reduction”. Moreover, in the data set with claudin-1 (dose-dependent), the “decrease in claudin-1 protein expression compared to scrambled siRNA-transfected cells” value is given as at most 60%. Also, the “nectin-1 mRNA expression, effect of CLDN1 silencing” value in the data set on nectin-1 (PVRL1) (n=5) is “not affected”. Moreover, the “nectin-1 (PVRL1) mRNA relative expression” value in the data set on nectin-1 (PVRL1) (siRNA 100 nM, n=5/group) was found to be 0.99±0.16. Also, the “cell proliferation by Click-iT EdU assay” value in data set [1] (CLDN1 siRNA, PHK) was “enhanced cell proliferation”. In addition, in data set [1] (claudin-1 depleted PHK), the proliferating cells worked out at 21.6±1.4 EdU positive cells/hpf. Moreover, the “connexin-26 (GJB2) expression over control” value with connexin-26 (GJB2) amounted to 1.7±0.8 fold.
